{
  "source": "paper PMC4039189",
  "binders": {"B1": {"name": "DDX21, plasmid-expressed (pcDNA3 plasmid expressing DDX21) (natural protein)", "chain": "MPGKLRSDAGLESDTAMKKGETLRKQTEEKEKKEKPKSDKTEEIAEEEETVFPKAKQVKKKAEPSEVDMNSPKSKKAKKKEEPSQNDISPKTKSLRKKKEPIEKKVVSSKTKKVTKNEEPSEEEIDAPKPKKMKKEKEMNGETREKSPKLKNGFPHPEPDCNPSEAASEESNSEIEQEIPVEQKEGAFSNFPISEETIKLLKGRGVTFLFPIQAKTFHHVYSGKDLIAQARTGTGKTFSFAIPLIEKLHGELQDRKRGRAPQVLVLAPTRELANQVSKDFSDITKKLSVACFYGGTPYGGQFERMRNGIDILVGTPGRIKDHIQNGKLDLTKLKHVVLDEVDQMLDMGFADQVEEILSVAYKKDSEDNPQTLLFSATCPHWVFNVAKKYMKSTYEQVDLIGKKTQKTAITVEHLAIKCHWTQRAAVIGDVIRVYSGHQGRTIIFCETKKEAQELSQNSAIKQDAQSLHGDIPQKQREITLKGFRNGSFGVLVATNVAARGLDIPEVDLVIQSSPPKDVESYIHRSGRTGRAGRTGVCICFYQHKEEYQLVQVEQKAGIKFKRIGVPSATEIIKASSKDAIRLLDSVPPTAISHFKQSAEKLIEEKGAVEALAAALAHISGATSVDQRSLINSNVGFVTMILQCSIEMPNISYAWKELKEQLGEEIDSKVKGMVFLKGKLGVCFDVPTASVTEIQEKWHDSRRWQLSVATEQPELEGPREGYGGFRGQREGSRGFRGQRDGNRRFRGQREGSRGPRGQRSGGGNKSNRSQNKGQKRSFSKAFGQ"}},
  "biological_target": "C-terminal TAP-tagged PB1 (influenza A virus, strain not stated)",
  "test": "pull-down",
  "data": [
    {"binder": "B1", "values": [
      {"measurement": "percent reduction of TAP-selected PA by DDX21 (1 μg plasmid)", "result": 75, "unit": "%"},
      {"measurement": "percent reduction of TAP-selected PB2 by DDX21 (1 μg plasmid)", "result": 65, "unit": "%"}
    ]}
  ]
}
